# Results from patent US20220025032A1 (Novartis, published 2022).
# Experiments:
# [1] = molecular target: T1, membrane-bound human BTC on 293F-hBTC cells (human, UniProt P35070 32-111); assay: flow cytometry on 293F cells with membrane-bound human BTC, anti-human Fab detection; y axis Percent Positive Binding, x axis Antibody concentration (nM)
# T1 construct: the transfected construct is not described; also called membrane-anchored BTC
# T1 sequence: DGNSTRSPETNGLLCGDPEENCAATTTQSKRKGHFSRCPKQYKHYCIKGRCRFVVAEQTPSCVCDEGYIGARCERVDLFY
# Procedure: After washing the cells, the cells were dissociated using Versene at 37° C. The cells were washed with FACS buffer and plated at 100 μl in a 96 well plate using cells at 1×10⁶ cells/ml. Then 100 μl of a serial dilution of antibodies starting at 50 nM was used. The cells were incubated, washed and then treated with the secondary anti-human Fab-FITC antibody. The antibodies only bound to the cells expressing BTC. After which the cells were washed and analyzed on the Attune Flow Cytometry. All data analysis was carried out using Flow Jo software.
# In FIG. 6A, Flow cytometry was used to assess the binding of NVS11 to membrane-bound BTC using an anti-human Fab antibody for detection.
# [2] = molecular target: T2, Human BTC (human, UniProt P35070 32-111); assay: inhibition of BTC binding to ErbB1; y axis MSD units, x axis Fab (pM); blocked partner ErbB1
# T2 construct: Soluble human BTC of the Biacore, ELISA, MSD and cell assays; also called human betacellulin; soluble human BTC
# T2 sequence: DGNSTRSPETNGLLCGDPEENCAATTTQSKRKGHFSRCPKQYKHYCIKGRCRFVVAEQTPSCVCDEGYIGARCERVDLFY
# [3] = molecular target: T2, Human BTC; assay: MSD-based inhibition of BTC binding to ErbB4
# [4] = molecular target: T2, Human BTC; assay: cell-based inhibition of BTC binding to ErbB1
# [5] = molecular target: T1, membrane-bound human BTC on 293F-hBTC …; assay: flow cytometry, 293F cells with BTC against 293F
binder,measurement,setting,value
"NVS1 (Fab, V domains shown, also called Fab NVS1; NVS1 Fab) VH: QVQLVQSGAEVKKPGSSVKVSCKASGGTFSSYAISWVRQAPGQGLEWMGGIVPWMGEAVYAQKFQGRVTITADESTSTAYMELSSLRSEDTAVYYCARSSSTYGIHAFDYWGQGTLVTVSS VL: DIQMTQSPSSLSASVGDRVTITCRASQSISNFLNWYQQKPGKAPKLLIYAASNLQSGVPSRFSGSGSGTDFTLTISSLQPEDFATYYCQQYDDFPMTFGQGTKVEIKR",EC50,[1],0.133 nM
same,IC50,[2],0.301 nM
same,MSD-based binding inhibition BTC/ErbB4,[3],> 90%
same,Cell-based binding inhibition BTC/ErbB1,[4],> 90%
same,"Binding to membrane-anchored BTC (median, X above 293F)",[5],> 10 X above 293F
